From patent publication US20190336589A1, “IMMUNIZING PEPTIDE, METHOD FOR PRODUCING IMMUNIZING PEPTIDE, PHARMACEUTICAL COMPOSITION FOR IMMUNE DISEASE CONTAINING SAME, AND METHOD FOR TREATING IMMUNE DISEASE” (OSAKA UNIVERSITY, priority 2015, published 2019) come the findings set out here.

Experiment [1] has as its target T1, complex of HEL peptide and MHC class II molecule (I-A^k) on 293 T cells (Mus musculus, UniProt P01910+P06343).
T1 construct: α-chain of mouse MHC class II molecule (I-A^k); β-chain of mouse MHC class II molecule (I-A^k); expressed in transfected cells; host or cells: 293T cells (pME18S vectors, co-transfected with pMX-GFP)
Put plainly: Flow cytometry of serum IgG from HEL protein-immunized mice binding to 293 T cells expressing I-A^k pulsed with HEL peptides. The text has this: From mouse spleen cDNA, polynucleotides encoding the α-chain and the β-chain of a mouse MHC class II molecule (I-A^k) shown below were cloned into pME18S vectors, respectively. Thus, a mouse MHC class II molecule (I-A^k) α-chain expression vector (I-A^k a expression vector) and a mouse MHC class II molecule (I-A^k) β-chain expression vector (I-A^k β expression vector) were produced. As a GFP expression vector, pMX-GFP (obtained from the Division of Cellular Therapy in the Advanced Clinical Research Center of the Institute of Medical Science, the University of Tokyo) was used.
293T cells (obtained from RIKEN BioResource Center) were used as host cells to which the above-described expression vectors were to be introduced. First, the 293 T cells were seeded in a 24-well plate at a density of 2×10^5 cells/500 μl/well. Next, the expression vectors were introduced to the 293T cells using a PEI max solution obtained by dissolving a transfection 5 reagent (PEI max, Cosmo Bio Co., Ltd.) in purified water at a concentration of 2 mg/ml. Specifically, a mixture of 2 μl of the PEI max solution and 50 μl of a serum-free medium (OPTI-MEM®, GIBCO) was added to 50 μl of a serum-free medium containing 0.26 μg of the I-A^k c expression vector, 0.26 μg of the I-A^k f expression vector, and 0.26 μg of the GFP expression vector. Then, they were mixed together, whereby a transfection reagent was prepared. Thereafter, the transfection reagent was added to each well to introduce the expression vectors to the 293 T cells. After the introduction, the 293 T cells were cultured in a DMEM medium at 37° C. for 12 hours. Next, each of HEL peptides shown in Table 3 below was added to the wells at a concentration of 20 μmol/l. The 293 T cells were cultured for another 24 hours under the above-described culture conditions, whereby the 293 T cells were pulsed with the HEL peptide. The cultured 293 T cells were collected from the wells. Thereafter, the collected 293 T cells were used in antibody detection to be described below. The HEL peptides used in the present example and the following examples were obtained from SCRUM Inc., Eurofins Genomics K.K., or GenScript. In the HEL protein, a T-cell epitope presented by the MHC class II molecule I-A^k is a peptide consisting of the amino acid sequence of SEQ ID NO: 1 (DGSTDYGILQINSR). Thus, among the HEL peptides shown in Table 3 below, HEL peptide 41-70 corresponds to the immunizing peptide.
100 μg of a HEL protein (Sigma) was mixed with a complete Freund's adjuvant (CFA, Sigma), and the resultant mixture was administered subcutaneously to mice (B10.A strain). Two weeks after the administration, whole blood was collected from each mouse, and serum was collected from the whole blood.
The serum collected from each of the HEL protein-immunized mice was diluted 100-fold with a HANKS' BALANCED SALT SOLUTION (HBSS, Sigma) to obtain a diluted serum. Next, 10 μl of the diluted serum was added to the 293 T cells obtained in the above item (1) to cause a reaction. The 293 T cells after the reaction were washed, and then stained with an APC-labeled anti-mouse IgG (H+L) antibody (code-number: 715-136-150, Jackson ImmunoResearch). Thereafter, the stained 293 T cells were analyzed by flow cytometry (FACSCalibur™, Becton Dickinson) (peptide non-added groups). As peptide added groups, the HEL peptides shown in Table 3 above were added to the diluted serums, respectively, at a concentration of 40 μmol/l. Then, the diluted serums containing the respective HEL peptides were added to the 293 T cells pulsed with the corresponding HEL peptides to cause a reaction. Except for the above, the peptide added groups were analyzed by the flow cytometry analysis in the same manner.
Peptide non-added groups were analyzed by flow cytometry in the same manner as in the above item (3), except that, instead of the HEL peptides shown in Table 3 above, the HEL peptide 41-70, the HEL peptide 48-61, and HEL peptides shown in Table 4 below were used. […]

In experiment [2] the target is T2, 3A9 TCR / complex of HEL antigen and I-A^k on LK35.2 cells (Mus musculus, UniProt P01910+P06343).
T2 construct: LK35.2 cells expressing I-A^k (the MHC class II molecule); endogenous in cells; host or cells: LK35.2 cells (I-A^k); the 3A9 scTCR-Fc is culture supernatant of transfected 293T cells
T2 sequence (P01910 24-256): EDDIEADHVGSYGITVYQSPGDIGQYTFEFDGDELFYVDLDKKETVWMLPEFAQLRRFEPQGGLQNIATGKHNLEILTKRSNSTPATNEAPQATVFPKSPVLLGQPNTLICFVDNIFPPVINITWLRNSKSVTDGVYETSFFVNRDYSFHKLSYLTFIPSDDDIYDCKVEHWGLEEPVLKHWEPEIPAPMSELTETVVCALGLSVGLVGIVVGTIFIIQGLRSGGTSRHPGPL
T2 sequence (P06343 28-263): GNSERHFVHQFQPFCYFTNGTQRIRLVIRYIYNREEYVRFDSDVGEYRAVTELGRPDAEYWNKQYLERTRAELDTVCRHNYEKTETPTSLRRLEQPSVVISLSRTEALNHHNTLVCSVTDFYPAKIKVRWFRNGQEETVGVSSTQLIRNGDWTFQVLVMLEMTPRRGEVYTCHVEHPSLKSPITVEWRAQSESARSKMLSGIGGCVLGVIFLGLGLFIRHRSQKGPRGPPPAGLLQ
Description: Immunization of mice with HEL protein or HEL peptides; serum inhibition of soluble single-chain 3A9 TCR binding to HEL protein-pulsed LK35.2 cells. Particulars: immunogen with CFA subcutaneously; serum two weeks after administration. It is filed as in vivo, mice (B10.A strain). The protocol:
30 nmol of the HEL peptide 41-70 or the HEL peptide 48-61 was mixed with a complete Freund's adjuvant. Each of the thus-obtained mixture was administered subcutaneously to mice (B10.A strain). Two weeks after the administration, whole blood was collected from each mouse, and serum was collected from the whole blood.
LK35.2 cells were pulsed with the HEL protein in the same manner as in the item (2) in Example 1B, except that the HEL protein was added instead of the HEL protein, the HEL peptide 41-70, and the HEL peptide 48-61. The cultured LK35.2 cells were collected from the wells. Thereafter, the collected LK35.2 cells were used in inhibition of TCR recognition by an antibody to be described below.
Flow cytometry analysis was performed in the same manner as in the item (3) in Example 1B, except that serums of the HEL peptide 41-70-immunized mice or serums of the HEL peptide 48-61-immunized mice were used in addition to the serums of the HEL protein-immunized mice and that the LK35.2 cells obtained in the item (1) in Example 2B were used instead of the LK35.2 cells obtained in the item (2) in Example 1B. As Control 1, the flow cytometry analysis was performed in the same manner, except that serums collected from non-immunized mice were used instead of the serums of the HEL protein-immunized mice, the serums of the HEL peptide 41-70-immunized mice, and the serums of the HEL peptide 48-61-immunized mice. As Control 2, the flow cytometry analysis was performed in the same manner, except that the HEL protein was not added.
30 nmol of the HEL peptide 48-77 (Y53A L56A) was mixed with a complete Freund's adjuvant, and the resultant mixture was administered subcutaneously to mice (B10.A strain). Two weeks after the administration, whole blood was collected from each mouse, and serum was collected from the whole blood.
Flow cytometry analysis was performed in the same manner as in the item (3) in Example 1B, except that serums of the HEL peptide 48-77 (Y53A L56A)-immunized mice were used in addition to the serums of the HEL protein-immunized mice and that the LK35.2 cells obtained in the item (2) in Example 4 were used instead of the LK35.2 cells obtained in the item (2) in Example 1B. As controls, the flow cytometry analysis was performed in the same manner, except that serums collected from non-immunized mice were used instead of the serums of the HEL protein-immunized mice and the serums of the HEL peptide 48-77 (Y53A L56A)-immunized mice.

Where [3] appears, read: peptide added groups: same HEL peptide added to diluted serum at 40 μmol/l, serum of HEL protein-immunized mice.
Where [4] appears, read: peptide non-added groups, serum of HEL protein-immunized mice diluted 100-fold, I-A^k 293 T cells pulsed with 20 μmol/l peptide.

T1 sequence (P01910 24-256): as the sequence (P01910 24-256) above
T1 sequence (P06343 28-263): as the sequence (P06343 28-263) above

In the case of “DGSTDYGILQINSR (Gallus gallus domesticus) [HEL peptide 48-61, reference compound]”, the “serum IgG binding to 293 T cells pulsed with the HEL peptide” value in experiment [1] (setting [3]) and in experiment [1] (setting [4]) was “not observed” each time. In addition, the “binding of soluble single-chain TCR to LK35.2 cells pulsed with HEL protein after reaction with serums of mice immunized with the substance” value in experiment [2] is reported as “observed”.
In the case of “QATNRNTDGSTDYGILQINSRWWCNDGRTP (Gallus gallus domesticus) [HEL peptide 41-70]”, the “serum IgG binding to 293 T cells pulsed with the HEL peptide” value in experiment [1] (setting [3]) and in experiment [1] (setting [4]) was “observed” throughout. The “binding of soluble single-chain TCR to LK35.2 cells pulsed with HEL protein after reaction with serums of mice immunized with the substance” value in experiment [2] is recorded as “not observed”.
